Target: 20S proteasome (human red blood cell proteasomes) (human)
Assay: competition assay with REGα(N146Y)/REGβ(N135Y) as competitor for the proteasome

REGγ (wild-type), sequence (P61289 whole entry): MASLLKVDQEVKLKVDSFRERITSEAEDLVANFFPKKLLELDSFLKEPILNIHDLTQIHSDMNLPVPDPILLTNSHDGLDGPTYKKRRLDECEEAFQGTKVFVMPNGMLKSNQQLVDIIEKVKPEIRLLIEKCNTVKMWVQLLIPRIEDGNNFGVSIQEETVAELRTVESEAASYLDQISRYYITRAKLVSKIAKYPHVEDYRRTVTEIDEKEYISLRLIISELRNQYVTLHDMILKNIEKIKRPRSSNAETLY

| Substance | Relative affinity for proteasome (% of wild-type REGγ) |
| --- | --- |
| REGγ (wild-type) (from UniProt P61289 1-254) | 100 |
| REGγ(K188E) (from UniProt P61289 1-254) | 90 |
| REGγ(K188A) (from UniProt P61289 1-254) | 60 |
| REGγ(K188N) (from UniProt P61289 1-254) | 75 |
| REGγ(K188H) (from UniProt P61289 1-254) | 50 |
| REGγ(K188S) (from UniProt P61289 1-254) | 50 |
| REGγ(K188P) (from UniProt P61289 1-254) | 40 |
| REGγ(K188C) (from UniProt P61289 1-254) | 60 |
| REGγ(K188R) (from UniProt P61289 1-254) | 75 |
| REGγ(K188Q) (from UniProt P61289 1-254) | 75 |
| REGγ(K188F) (from UniProt P61289 1-254) | 40 |
| REGγ(K188I) (from UniProt P61289 1-254) | 60 |
| REGγ(K188D) (from UniProt P61289 1-254) | 90 |
| REGα (from UniProt Q06323 1-249) | 0 |

Target: 20S proteasome (human red blood cell proteasomes) (human)
Assay: cell-based or functional assay

| Substance | half-life of the 49-residue peptide BBC1 with the proteasome | rate of CT/PGPH labeling by 125I-YL3-VS, fold over proteasome alone | rate of T-subunit labeling by 125I-YL3-VS, fold over proteasome alone |
| --- | --- | --- | --- |
| REGγ (wild-type) (from UniProt P61289 1-254) | 45 min | 4.4 fold | 4.7 fold |
| REGγ(K188E) (from UniProt P61289 1-254) |  | 11.9 fold | 10.8 fold |
